Experimental data from patent US7888090B2, “Mutants of O6-alkylguanine-DNA alkyltransferase” (Ecole Polytechnique Federale de Lausanne, priority 2004, dated 2011).
Entries after “also recorded” stand apart in the source; their conditions may differ.

B1: Gly131Lys, Gly132Thr, Met134Leu, Arg135Ser, Asn157Gly, Ser159Glu: hAGT mutant with the listed mutations, selected by phage display (protein, UniProt P16455 1-207, looked up, variant G131K G132T M134L R135S N157G S159E)
Methylated-DNA--protein-cystei …: MDKDCEMKRTTLDSPLGKLELSGCEQGLHEIKLLGKGTSAADAVEVPAPAAVLGGPEPLMQCTAWLNAYFHQPEAIEEFPVPALHHPVFQQESFTRQVLWKLLKVVKFGEVISYQQLAALAGNPKAARAVKTALSGNPVPILIPCHRVVCSSGAVGGYEGGLAVKEWLLAHEGHRLGKPGLGGSSGLAGAWLKGAGATSGSPPAGRN

Key:
[1] = Reaction of two AGT variants in one sample with CPTG and BG-Bt; format: biochemical; conditions: versus His-tagged AGTM
Experimental: FIG. 2: Western blot of the reaction of wild type hAGT (GST-hAGT fusion protein) and AGTM with the two substrates N^9-cyclopentyl-O^6-bromophenyl-guanine (CPTG) and biotinylated O^6-benzylguanine (BG-Bt, substance 3a of Juillerat et al. 2003) as described in Example 7. BG-Bt is present in all samples at 5 μM. Detection with neutravidin-peroxidase conjugate and luminescent peroxidase substrate detecting any AGT reacted with BG-Bt. Even under simultaneous incubation with identical concentrations of CPTG and BG-Bt only about 5% of GST-hAGT reacts with substrate BG-Bt.
Within the experiment two tags with different size for the two AGT proteins are used: The His-tagged AGTM (˜20 kDa) and GST-hAGT (cloned and prepared as described in Example 1, but starting with the wild type hAGT gene, ˜48 kDa) are diluted to 0.2 μM and 1.2 μM final concentration, respectively, in reaction buffer containing 50 mM HEPES, 1 mM DTT, 200 mg/mL BSA (pH 7.3). The sample is incubated with a mixture of substrates N^9-cyclopentyl-O^6-bromophenyl-guanine (CPTG; 0, 5 and 10 μM final concentrations) and biotinylated O^6-benzylguanine (BG-Bt, 5 μM final concentration) for 30 minutes. The reaction is quenched by addition of SDS-Laemmli buffer and subjected to Western blotting analysis (Example 1). As the two AGT variants have different masses, the two proteins can be separated on an acrylamide gel and analyzed independently. […] At the same concentration (both substrates at 5 μM final concentration), 95% of GST-hAGT reacts with CPTG, versus only 5% of His-tagged AGTM.

[2] = Expression yield of soluble GST-AGT fusion protein; design: species or system E. coli; conditions: comparator not stated
Experimental: Expression yield is measured in E. coli or in any other of the standard production cells for genetically modified proteins, e.g. yeast, or preferably insect cells, CHO cells or HeLa cells. For quantifying expression yield, AGT fusion proteins may be chosen such that the fusion partner allows easy purification and quantification. For example, expression yield in E. coli is determined by measuring and comparing the yield of soluble and insoluble GST-wild type AGT fusion protein and GST-mutant AGT fusion protein from parallel E. coli expression cultures. Samples of the soluble fractions and insoluble fractions (i.e. the inclusion bodies) after cell lysis are subjected to SDS-PAGE, and the band staining intensities of the corresponding AGT fusion proteins are compared. Soluble protein is quantified after purification of the fusion protein from cell extracts by affinity chromatography (e.g. for GST-AGT fusion proteins by glutathione sepharose) by subjecting the purified fractions to a protein concentration assay (Bradford, Anal Biochem 72:248-54, 1976). The expression yield of similar proteins in the soluble fraction (difference in point mutations) can be used as a measure for protein stability in the unpurified as well as the purified state (Ohage et al., J Mol Biol 291:1119-1128, 1999; Wirtz et al., Protein Sci 8: 2245-50, 1999). Therefore, this is taken as a measure of folding stability and aggregation tendency.
Protein expression from this vector is carried out in E. coli strain BL21. An exponentially growing culture is induced with 0.5 mM IPTG, and the expression is carried out for 3.5 h at 24° C.
Purification: The harvested cells are resuspended in a buffer containing 50 mM phosphate, 0.5 M NaCl, 1 mM DTT, supplemented with 1 mM PMSF and 2 μg/ml aprotinin, and disrupted by lysozyme and sonification. The cell debris are separated by centrifugation at 40000×g. The extract is applied to pre-equilibrated glutathione sepharose (Amersham) which is then washed with 20 bed volumes (50 mM phosphate, 0.5 M NaCl, 1 mM DTT). The mutated GST-AGT fusion protein is eluted with 10 mM reduced glutathione in 50 mM Tris·HCl pH 7.9. The purified protein is dialyzed against 50 mM HEPES pH 7.2; 1 mM DTT; 30% glycerol and then stored at −80° C.
Determination of protein yield: Purity and relative amounts of the GST-AGT fusion proteins are compared by running samples on SDS-PAGE. UV spectra of the pure fractions are recorded using a Perkin Elmer Lambda 10. For protein samples containing no significant amount of DNA, the extinction at 280 nm as a measure of protein content is compared to that of wild type hAGT or PGEG-hAGT that were purified under the same conditions.

[3] = Activity assay with biotinylated O^6-benzylguanine (BG-Bt), Western blotting; format: biochemical; conditions: statement in words
Experimental: Activity towards O^6-benzylguanine substrates is measured as described by Juillerat et al., Chem Biol 10:313-317, 2003.
Activity assay: Purified mutated GST-AGT is incubated in vitro with a biotinylated O^6-benzylguanine (BG-Bt, substance 3a of Juillerat et al., Chem Biol 10:313-317, 2003). In a total reaction volume of 80 […]I, 0.2 µM GST-AGT are incubated with 1 µM substrate in 50 mM HEPES pH 7.2 and 1 mM DTT at room temperature. At several points of time an aliquot is quenched with 1 mM O^6-benzylguanine (Sigma) in SDS-Laemmli buffer and subjected to Western blotting analysis (neutravidin-peroxidase conjugate (PIERCE), Renaissance reagent plus (NEN)). The intensity of the corresponding bands is quantified by a Kodak Image Station 440.

[4] = test system: oligonucleotide SEQ ID NO:2 (modified in position 14); test: Reactivity against DNA-based substrates (BG-Cy3 assay with BG-modified oligonucleotide); format: biochemical; conditions: oligonucleotide SEQ ID NO:2 with O^6-benzyl at position 14; compared to PGEG-hAGT
Experimental: The ability of wild type AGT or mutant AGT to react with alkylated DNA substrates is measured as the reaction of its inactivation by a synthetic oligonucleotide containing O^6-benzylguanine (SEQ ID NO:2, modified in position 14). Subsequently, the reactions are quenched by incubation with biotinylated O^6-alkylguanine. Samples are subjected to Western blotting and detection with streptavidin derivates to obtain kinetic constants for these substrates. Alternatively, the ability of wild type or mutant AGT to react with alkylated DNA substrates is measured via its labeling efficiency in competition with a fluorescent substrate of AGT. The reaction kinetics of AGT with BG-Cy3 (O^6-benzylguanine coupled to Cy3) is followed by fluorescence intensity measurements at various concentrations of a competing synthetic oligonucleotide containing O^6-benzylguanine (SEQ ID NO:2, modified in position 14).
Reactivity against DNA-based substrates measured with a BG-Cy3 assay: BG-Cy3 is prepared by reacting the previously described O^6-(4-aminomethyl-benzyl)guanine (Keppler et al., NatureBiotechnol. 21:86-89, 2003) with the commercially available N-hydroxysuccinimide ester of Cy3, (Cy3-NHS, Amersham). The coupling reaction is performed at ambient temperature in N,N-dimethylformamide in the presence of 1 eq. of triethylamine. The BG-Cy3 conjugate is purified by reversed-phase HPLC on a C18-column by using linear gradients from 0.1% trifluoroacetic acid to acetonitrile. After solvent evaporation BG-Cy3 is dissolved in dimethyl sulfoxide and stored at −20° C. For measuring the reactivity with DNA-based substrates, a reaction mixture containing different concentrations (0 to 5 µM) of oligonucleotide SEQ ID NO:2 (modified in position 14), GST-AGT fusion protein at 0.2 µM and BG-Cy3 at […] in reaction buffer (50 mM HEPES, pH 7.2, 1 mM DTT, 200 mg/ml BSA) is incubated in microtiterplates. Fluorescence of the Cy3 derivative (excitation 519 nm, emission at 572 nm) is measured on a Spectramax Gemini plate reader (Molecular Devices).

[5] = Competition of N^9-substituted and N^9-unsubstituted O^6-benzylguanine substrates; format: biochemical
Experimental: Such N^9-substituted O^6-alkylguanine substrates are the natural substrates of the wild type AGT. The ability of wild type AGT or mutant AGT to react with N^9-modified O^6-alkylguanine substrates is measured as the rate of its reaction with such substrates, e.g. with the low molecular weight N^9-cyclopentyl-O^6-benzylguanine in presence of biotinylated N^9-unsubstituted O^6-alkylguanine substrates in competition experiments. Subsequently, samples are subjected to Western blotting and detection with streptavidin derivates to obtain kinetic constants for these substrates. Alternatively, the reactivity towards such substrates is measured as the inhibition of the reaction of AGT with BG-Cy3. The reaction of AGT with BG-Cy3 is followed by an increase of Cy3 fluorescence intensity upon binding to AGT, after preincubation or in direct competition with the N^9-modified O^6-alkylguanine substrate.
Selected AGT mutants are subcloned into pGEX2T, expressed, purified and characterized as described in Example 1. Discrimination between N^9 substituted and N^9 unsubstituted O^6-benzylguanine substrates is evaluated by competition experiments for purified mutated GST-AGT in vitro with N^9-substituted and N′-unsubstituted O^6-benzylguanine. Aliquots of 0.2 μM GST-AGT are incubated with varying concentrations of N^9 substituted substrate (0, 0.5, up to 100 µM) and 0.5 µM biotinylated O^6-benzylguanine (BG-Bt, substance 3a of Juillerat et al., Chem Biol 10:313-317, 2003) in 50 mM HEPES pH 7.3 and 1 mM DTT at room temperature. After 45 min reactions are quenched by the addition of SDS-Laemmli buffer and heat denaturation. Samples are subjected to SDS-PAGE and Western blotting analysis (neutravidin-peroxidase conjugate (PIERCE), Renaissance reagent plus (NEN)). The intensity of the corresponding bands is quantified by a Kodak Image Station 440.

Molecule | specificity of CPTG towards GST-hAGT [1] | expression yield in E. coli [2] | activity towards O^6-benzylguanine substrates [3] | reduction of reactivity with oligonucleotides [4] | reduced reactivity towards O^6-alkyl-N^9-deoxyribosylguanine or N^9-cyclopentyl-O^6-benzylguanine ([5]; comparator not stated) | reduction of reactivity towards O^6-alkyl-N^9-deoxyribosylguanine or N^9-cyclopentyl-O^6-benzylguanine ([5]; compared to PGEG-hAGT)
Nc1nc(OCc2cc(Br)cs2)c2ncn(C3CCCC3)c2n1 [CPTG, reference compound] | high specificity |  |  |  |  | 
B1 |  | increased expression yield | at least twofold further increased activity; also recorded: increased reactivity | at least 1000 fold | substantially reduced reactivity | at least 10 fold
